The results in this text go back to article PMC3785480, “BB0347, from the Lyme Disease Spirochete Borrelia burgdorferi, Is Surface Exposed and Interacts with the CS1 Heparin-Binding Domain of Human Fibronectin” (PLoS ONE, 2013).

In the experiment the target is T1, recombinant BB0347 (Borrelia burgdorferi).
T1 construct: also called rBB0347; source: E. coli Rosetta(DE3)pLysS, pET200, purified (MagneHis nickel particles, dialysed into PBS)
The experiment can be described thus: ELISA; FnHBD assay: coated plate treated with varying concentrations of rBB0347, 37°C, 1.5 h; detected with rabbit polyclonal anti-BB0347; KD = concentration of added protein at half-maximal binding, assuming saturation. The conditions noted are these: both partners purified. (In general: ELISA stands for enzyme-linked immunosorbent assay.)

B1: peptide fragment containing the CS1 heparin-binding domain (HBD) of human Fn (domain or fragment)
chain: AIPAPTDLKFTQVTPTSLSAQWTPPNVQLTGYRVRVTPKEKTGPMKEINLAPDSSSVVVSGLMVATKYEVSVYALKDTLTSRPAQGVVTTLENVSPPRRARVTDATETTITISWRTKTETITGFQVDAVPANGQTPIQRTIKPDVRSYTITGLQPGTDYKIYLYTLNDNARSSPVVIDASTAIDAPSNLRFLATTPNSLLVSWQPPRARITGYIIKYEKPGSPPREVVPRPRPGVTEATITGLEPGTEYTIYVIALKNNQKSEPLIGRKKT
For the molecule B1, the Kd was 180 ± 14 nM.

What is called Kd is the free concentration of one partner at which half of the binding sites on the other are occupied at equilibrium, for simple one-to-one binding.
